Assay results published in the DeepSol protein solubility set.

Test: soluble on expression in E. coli; label from the status in PepcDB or PDB records

Sequence	soluble on expression in E. coli
MDVRQVLHMKGGAGENSYAMNSFIQRQVISITKPITEAAITALYSGDTVTTRLAIADLGCSSGPNALFAVTELIKTVEELRKKMGRENSPEYQIFLNDLPGNDFNAIFRSLPIENDVDGVCFINGVPGSFYGRLFPRNTLHFIHSSYSLMWLSQVPIGIESNKGNIYMANTCPQSVLNAYYKQFQEDHALFLRCRAQEVVPGGRMVLTILGRRSEDRASTECCLIWQLLAMALNQMVSEGLIEEEKMDKFNIPQYTPSPTEVEAEILKEGSFLIDHIEASEIYWSSCTKDGDGGGSVEEEGYNVARCMRAVAEPLLLDHFGEAIIEDVFHRYKLLIIERMSKEKTKFINVIVSLIRKSD	soluble
KVNMDLRANLKQVKKEDTEKEKDLRDVGDWRKNIEEKSGMEGRKKMFEAGES	soluble
AFTFLHTADLHLDAPLRAVALRDPELAAEIGVASRTAFSRIVDLCLAEAVAFLVIAGDLWDGTYSSTKTPRFLKQELLRLEAAGIGCYILRGNHDALARQTGELEAPANTTVFGARPSTVELSIDGQPVALHGLSFREPHAPESLLPRYPAPKPGAFNLGLMHTSLNGSPGHDPYAPCSLAELEAHGYDYWALGHIHRRFVHRGRATVVMPGTPQGRDIGEAGAASVTLVQVGDDGAVTLEERSVA	not soluble
MAHHHHHHMRADSVSQTRKQQPNSSALGDDGDDEGANGEVEGRPMRQCMHITDKEIVIKLQNWFCDSNEIAGEWEAAGKTESRRSGASSNLEISQTIPFHSSHKSSLGKSASSSTLRPSNTCIPADLSAPLDGAPSLEVSTTSETRKIHSARGPRADERASRPYRTPSTDAVRYCAVYLRHFATIHQQHPYENSRQEQLLPTLAPEPLTAPLVALLTPWERNFIYRDILGQTEEQVSRAMEIVEHSPNMSYTYPTPFLKVSGISRVLLVEPPAAERVALLLRVMRAAEVLQVPSLRSLCAAWCADFIVRASYGARDHFEAAALVRRCFQVQNDWSRKEMDCLKLENEWPVNEEEY	not soluble
MALNNFLTFQLLLLLLRVSSESPWIVAGDVSRIPINFLELAKSPEVFDSMVRIRRKIHENPELGYEEFETSKFIRSELDLIGVKYRFPVAITGIIGYIGTGEPPFVALRADMDALPIQEAVEWEHKSKNPGKMHACGHDGHVAMLLGAAKILQQHRQHLQGTVVLIFQPAEEGLSGAKMMREEGALKNVEAIFGIHLSPRTPFGKAASLAGSFMAGAGAFEAVITGKGGHAAIPQHTIDPVVAASSIVLSLQHLVSRETDPSDSKVVTVTKVNGGNAFNVIPDSITIGGTLRAFTGFTQLQERIKEIITKQAAVHRCNASVNLAPNGNQPMPPTVNNMDLYKKFKKVVRDLLGQEAFVEAVPEMGSEDFSYFAETIPGHFSLLGMQDETQGYASSHSPHYRINEDVLPYGAAIHATMAVQYLKDKASKGSVSGFHDEL	soluble
MAHHHHHHMDAKQRESIEELKEQLRGLEEALLIQEKVMQQRNQVILSLSSSIADAENSIGESKEGLKKAEESLEEAIRSNTIAHTERLVLQEEATKYSERDEYLNELSEADAGLNAAEAQVKDLVIQINDLSREPQNKNALQRVTLVRLISMLNDLHASLKHSVQCVPHEEDNRAREVLKAIRELSRERERTFGHCLRKKREIMGVMELKKQRTDEILLESKKNVALLRDIHEKTTLDAVEKIQKERNLLQEELENIKRANQLLQDTLGSTECLCDTKGSDSASTPASISMNVASCQSTDVQKEREHLREYLRHLEEKVTQLRSTTDELRESVGSQMEKNTLKLKDLRHQVRSKQNETHRLENENRKLKSLCDSLASTLGPK	not soluble
MAHHHHHHMSGQAGKQVAPVKCKGWAVEKPALKWSTDAVRLSDVTVPAPDPTQIRVRVYAASINPVDWKRVMFPASGSGPGVAGSALKGFKGMHHKPPNYPYPYVVGVDGAGEVESVGRKVTGLKAGDRVMFHSSLTNAHGGSLCEYAVMEESVAVPIPADGARPFSYEEAAAIPCATWTAYVALFDKLRIEPGRSIFVDGASGAVGSCAVQLAHHMGLYVFASCSPSNADYVRSIGADQVLNYHDGIEMVDQILDATEGYGVDYYLAVTNTQDAESFTDALRFGGAVCLLSGVLIPNSNVLFRRQLSVHYVFLNGLHGHPLTRPQLRYIGDQVAKLYQSGAFRLDVEVLPFAEAAKALDRSATGNVNHKKLIVQVASP	soluble
VRWIVDGMNVIGSRPDGWWRDRHRAMVMLVERLEGWAITKARGDDVTVVFERPPSTAIPSSVVEVAHAPKAAANSADDEIVRLVRSGAQPQEIRVVTSDKALTDRVRDLGAAVYPAERFRDLIDPRGSNAARRTQ	soluble
MGHHHHHHSHMLSPNPLNSRAVEDISSSRTNPYSYAMSTEEARFLTYHMWPLTFLSPSELARAGFYYIGPGDRVACFACGGKLSNWEPKDDAMSEHRRHFPNCPFLENSLETLRFSISNLSMQTHAARMRTFMYW	not soluble
ELQAIHEKVKTEHAALSTEVVHLRQRTEELLRCNEQQAAELETCKEQLFQSNMERKELHNTVMDLRGNIRVFCRIRPPLESEENRMCCTWTYHDESTVELQSIDAQAKSKMGQQIFSFDQVFHPLSSQSDIFEMVSPLIQSALDGYNICIFAYGQTGSGKTYTMDGVPESVGVIPRTVDLLFDSIRGYRNLGWEYEIKATFLEIYNEVLYDLLSNEQKDMEIRMAKNNKNDIYVSNITEETVLDPNHLRHLMHTAKMNRATASTAGNERSSRSHAVTKLELIGRHAEKQEISVGSINLVDLAGSESPKTSTRMTETKNINRSLSELTNVILALLQKQDHIPYRNSKLTHLLMPSLGGNSKTLMFINVSPFQDCFQESVKSLRFAASVNSCKMTKAKRNRYLNNSVANSSTQSNNSGSFDK	soluble
MGSDKIHHHHHHMGTRKGDAMEKFDTVVIGAGQAGIATSEHLRALGIDHVVLERGRIAERWRSERWDSLVANGPAWHDRFPGMAFSCDGDVFADKECVARYFEDYAKMIDAPVRTGVTVERARPHADRAGFLVETSQGTFDARNLICATGPFQKPAIPPIIPETSDLTQMHSTAYRNPDALPDGAVLVIGGGSSGSQIAAELHDAGRKVFFSIGPHDRPPRRYRGRDNVWWLGVLGIWNMDTPAPGTEHVTIAVSGAHGGKTVDFRLLAERGITLLGMSSGYEDGVLHIANDLKTNLDAGDANMLSLLEAADAYIKRTGIDLPPEPEAWVIPDDPDCVSNPVRALDLSENNIGTVIWATGFQFDYDWLEADTLDDRGSPIHQRGISAVPGLYFVGLPWQSRRGSSFIWGVWHDAKFIADQIAIQENYLAYRPTASS	not soluble
MSLRSMFMYKSHIPEDCEEEAQITAAKLILLVDDDPVFRRMTKGYLQKYGYQVIEAENGLDGLRKLRDHEPDLILCDLSMPVLNGIEFVEEVSSSYPSLPLVVVSATEEMADVAKALRFGIKDFLPKPITNHSHLASAIEKVLANDDHQRDFASCWYGADRQGSIPEEQELHWHLQYLKDNPNAAKELLEALLPEKDSQLGSWKCSYRLLQSAELMPLVFDYAWLMNGQFVFYVVDAASHRECGAASTLLVRALFHDYLRNLRNFSVELKDLAEIIERGIHCSECIGKVSALFGVADLADGTLSLLPAGLDCQWSNGYVHNRITSGVQLGDNSLRNFITKDLPIRAACQISLSKPSAYSFTLDLYQGEGHHHHHH	soluble
MKKLLFAIDDTEACERAAQYILDMFGKDADCTLTLIHVKPEFMLYGEAVLAAYDEIEMKEEEKAKLLTQKFSTFFTEKGINPFVVIKEGEPVEMVLEEAKDYNLLIIGSSENSFLNKIFASHQDDFIQKAPIPVLIVK	soluble
MAWALPAQAEQLIYGFQAEQLEYRQGDSEDSFVWDFDALIGTDELKLVWRSEGERVQGAGGFETLENQLRLQFPVSTFFDAVVGVQASTPDGLPDRYNAVLGLKGLAPQWFEIDADLYLSDNSFFRFEGEYEAMLTNRLTLTPSLELTLPLQDDPIYNQAAGGVTLEAGLRLSYDLIDRAVSPYIGVNYERSYGGTADMIRAAGDENGAFSVVFGTRLMFLEHHHHHH	not soluble
MSNFWVIALNKNWATLDQVKEAYYYDDVTKEELKEGVDNNLITPEQYQEIVGEAYTSVTLSTELEHHHHHH	not soluble
PWDSENTIYDKVDQTKRFIEDVVKSFKQNNAILGWILTNEISLVRIPQNDNIFLRWLRELYNYIKRIDDQHLISVGDNVSPFSHNFLRPENVKGIVDYASPHIYQYDQDPIRHSIRYFMILEYDRSAGLPVILEEFG	not soluble
VPMHPFVKALQEHFTAHQNPEKAEPMARYMKNHFLFLGIQTPERRQLLKDIIQIHTLPDQKDFQIIIRELWDLPEREFQAAALDIMQKYKKHINETHIPFLEELIVTKSWWDSVDSIVPTFLGDIFLKHPELISAYIPKWIASDNIWLQRAAILFQLKYKQKMDEELLFWIIGQLHSSKEFFIQKAIGWVLREYAKTNPDVVWEYVQNNELAPLSKREAIKHIKQNYGINNEKIGETLS	soluble
MRIKKKNTRGNARNFITRSQAVRKLQVSLADFRRLCIFKGIYPREPRNKKKANKGSTAPTTFYYAKDIQYLMHEPVLAKFREHKTFARKLTRALGRGEVSSAKRLEENRDSYTLDHIIKERYPSFPDAIRDIDDALNMLFLFSNLPSTNQVSSKIINDAQKICNQWLAYVAKERLVRKVFVSIKGVYYQANIKGEEVRWLVPFKFPENIPSDVDFRIMLTFLEFYSTLLHFVLYKLYTDSGLIYPPKLDLKKDKIISGLSSYILESRQEDSLLKLDPTEIEEDVKVESLDASTLKSALNADEANTDETEKEEEQEKKQEKEQEKEQNEETELDTFEDNNKNKGDILIQPSKYDSPVASLFSAFVFYVSREVPIDILEFLILSCGGNVISEAAMDQIENKKDIDMSKVTHQIVDRPVLKNKVAGRTYIQPQWIFDCINKGELVPANKYLPGEALPPHLSPWGDAIGYDPTAPVEEGEEEESESESESEDQVEEEDQEVVAGEEDDDDDEELQAQKELELEAQGIKYSETSEADKDVNKSKNKKRKVDEEEEEKKLKMIMMSNKQKKLYKKMKYSNAKKEEQAENLKKKKKQIAKQKAKLNKLDSKK	soluble
MTIELRDVTMENYFDVLNLDVKEYQKQFIATNAISLAEAYVYTKNGDFVAPLAVYDNDAIIGFVMIAYDKKIGISSGNYLLFRFMIDKNFQNQGYFKPIMDKVLDYVRTAPAGLSNKLWLSYEPENEQARFCYLSYGFKETGEISENEVVAIYDLTIEK	not soluble
QLVWGPDLSEKASAQRTRVFVDAARRGEIYDNTGQLLAYTMQARSLTASPKQLRKEIEYTAKIELQDEKEYSSWDENQRKKKIEDKVDSYLEEYSNEIPKIIKDSEASANDIKSKDILKKLKADTSYEVLVRNVDPDVAENIAQKFHGIAADLQQIRQYPNGAVAENVIGKISQDGQGQFGFESSNNSVLSGIDGRKTLDVAASGEVIPGSLRDEVPATNGANVTLTLDLDMQTYVQQQLEQAVSNSGAQSASAVVLDVKTGKVLTMANSGTINPNGDIEKQLKDNKSFENTTISSPFEPGSVAKIITAAGVIEDGKSTPDEVLQVPGSIEMSGVNVRDAWEHGTVGYTTTGIFGKSSNVGTLMLAQRLGEQRFNDLLHRFGIGQNTGIELPVESQGLLPDISQ	not soluble
MGSDKIHHHHHHMAESIRPLTKNDRQQFVTVMTKVFAKDPLFLYIFGDLYNDHRAQRRARTFMGFIFDKSMERQAEAVWGLFDKDTLLGTYVVESCPAETNHSFAELYRLMILIFRLSLQLPPKMTWQLNRYMRVTRAHAPSIPHHYLTIIGVRKEAQGAGRGRNLLEHIFGTIGSGELSLDTEKKENVTLYKKFGFVLTDVVKCGPINVYCMRKTIRPRQKN	not soluble
MGSDKIHHHHHHMQNFVLTVSCKSTRGVVAALSGYLAEQGCNIADSSQFDDLDTGKFFMRTSFISEERVGLAALEEGLKPIASKFEMETALHEQSERMKVLLMVSRFGHCLNDLLYRWKIGALPIDIVGVVSNHFDYQKVVVNHDIPFHHIKVTKENKPKAEAQLMDVVEQTGAELIVLARYMQVLSDALCKKMSGKIINIHHSFLPSFKGANPYKQAYERGVKLIGATAHYVTADLDEGPIIEQDIARITHAQSAEDYVSIGRDVESQVLARAVHAHIHHRCFINGNRVVVFPPSPGSYASERMG	not soluble
